Measured values: patent US20230340151A1 (Pfizer, published 2023)

How the values were obtained:
Experiment in all cases: flow cytometry on cells displaying the construct
[1] = target: CID1942 (human GUCY2c point mutant) (human)
From the text: (§1) Cells were then washed three times with PBS+0.5% BSA buffer. […] Cells were washed three times with PBS+0.5% BSA buffer and then analyzed on a flow cytometer.
(§2) MFI (median fluorescence intensity) of anti-GUCY2c antibody binding to the cells was normalized to expression on cell surface measured by MFI of anti-tag antibodies. All the cells expressed V5 and HA on the cell surface for expression normalization.

[2] = target: CID1946 (human GUCY2c point mutant) (human)
From the text: as §1, §2

[3] = target: T1, CID1879 (human-chicken GUCY2c chimera) (human/chicken)
T1 chain: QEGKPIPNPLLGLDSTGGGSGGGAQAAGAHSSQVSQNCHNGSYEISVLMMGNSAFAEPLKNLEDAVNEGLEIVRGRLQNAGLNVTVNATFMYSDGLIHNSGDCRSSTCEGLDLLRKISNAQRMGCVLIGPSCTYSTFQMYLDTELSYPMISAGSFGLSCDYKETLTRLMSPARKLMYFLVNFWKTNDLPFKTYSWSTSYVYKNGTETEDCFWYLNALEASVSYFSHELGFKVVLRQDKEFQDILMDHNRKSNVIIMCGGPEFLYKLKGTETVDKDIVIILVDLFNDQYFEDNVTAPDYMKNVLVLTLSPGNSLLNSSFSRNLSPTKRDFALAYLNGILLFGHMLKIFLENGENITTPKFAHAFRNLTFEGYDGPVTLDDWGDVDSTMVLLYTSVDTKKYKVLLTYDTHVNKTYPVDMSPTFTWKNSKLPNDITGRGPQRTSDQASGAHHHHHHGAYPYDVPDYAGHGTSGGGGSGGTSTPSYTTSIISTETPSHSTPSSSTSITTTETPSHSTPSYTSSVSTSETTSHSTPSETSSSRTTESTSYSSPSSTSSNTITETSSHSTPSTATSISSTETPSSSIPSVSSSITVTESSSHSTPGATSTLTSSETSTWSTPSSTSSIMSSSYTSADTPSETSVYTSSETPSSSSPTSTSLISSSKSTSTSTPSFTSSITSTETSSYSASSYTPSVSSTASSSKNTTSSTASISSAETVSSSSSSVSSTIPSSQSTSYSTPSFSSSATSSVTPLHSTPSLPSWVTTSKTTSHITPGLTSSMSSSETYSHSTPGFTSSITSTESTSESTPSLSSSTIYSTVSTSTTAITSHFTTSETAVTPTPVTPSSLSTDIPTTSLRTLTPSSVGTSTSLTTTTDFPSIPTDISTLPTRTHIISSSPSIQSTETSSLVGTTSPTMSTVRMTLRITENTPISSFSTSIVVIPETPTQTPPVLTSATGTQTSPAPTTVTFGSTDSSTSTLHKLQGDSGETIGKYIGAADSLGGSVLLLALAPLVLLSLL
From the text: as §1, §2

[4] = target: T2, CID1876 (human-chicken GUCY2c chimera) (human/chicken)
T2 chain: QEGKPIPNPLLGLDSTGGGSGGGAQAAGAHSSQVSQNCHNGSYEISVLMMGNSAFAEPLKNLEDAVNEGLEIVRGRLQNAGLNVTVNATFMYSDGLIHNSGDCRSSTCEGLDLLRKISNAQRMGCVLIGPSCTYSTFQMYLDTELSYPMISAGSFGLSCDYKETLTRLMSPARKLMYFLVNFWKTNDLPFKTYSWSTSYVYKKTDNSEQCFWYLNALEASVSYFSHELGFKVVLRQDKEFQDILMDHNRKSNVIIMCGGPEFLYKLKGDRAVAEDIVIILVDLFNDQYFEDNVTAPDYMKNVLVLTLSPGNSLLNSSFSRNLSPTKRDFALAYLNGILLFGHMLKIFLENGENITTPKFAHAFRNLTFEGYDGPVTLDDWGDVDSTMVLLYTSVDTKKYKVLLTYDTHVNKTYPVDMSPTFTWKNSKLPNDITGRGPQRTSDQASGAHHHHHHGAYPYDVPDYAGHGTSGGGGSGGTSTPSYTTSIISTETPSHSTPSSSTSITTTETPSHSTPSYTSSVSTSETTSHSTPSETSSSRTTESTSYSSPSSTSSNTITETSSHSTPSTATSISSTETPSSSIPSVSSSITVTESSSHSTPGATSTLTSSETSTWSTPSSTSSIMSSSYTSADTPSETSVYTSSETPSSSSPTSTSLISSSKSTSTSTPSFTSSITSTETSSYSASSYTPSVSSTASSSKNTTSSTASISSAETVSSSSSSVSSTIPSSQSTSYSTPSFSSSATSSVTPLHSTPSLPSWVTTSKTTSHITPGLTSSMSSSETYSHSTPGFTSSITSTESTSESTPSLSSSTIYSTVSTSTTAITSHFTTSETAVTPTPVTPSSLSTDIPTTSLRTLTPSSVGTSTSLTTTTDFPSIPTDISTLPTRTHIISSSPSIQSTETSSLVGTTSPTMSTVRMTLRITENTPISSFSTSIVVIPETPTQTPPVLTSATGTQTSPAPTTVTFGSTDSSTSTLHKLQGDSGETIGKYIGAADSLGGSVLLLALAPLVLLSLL
From the text: as §1, §2

[5] = target: CID1949 (human GUCY2c point mutant) (human)
From the text: as §1, §2

Measured: binding result

B1: GUCY2C-1608 (bispecific antibody)
chain 1: DIQLTQSPSSLSASVGDRVTITCRASESVDYYGSSLLQWYQQKPGKAPKLLIYAASKLASGVPSRFSGSGSGTDFTLTISSLQPEDFATYYCQQTRKAYTFGQGTKLEIKGGGSGGGGEVQLVESGGGLVQPGGSLRLSCAASGFTFSDYYMTWVRQAPGKGLEWVAFIRNQARGYTSDHNPSVKGRFTISRDNAKNSLYLQMNSLRAEDTAVYYCARDRPSYYVLDYWGQGTTVTVSSGCPPCPAPEAAGAPSVFLFPPKPKDTLMISRTPEVTCVVVDVSHEDPEVKFNWYVDGVEVHNAKTKPREEQYNSTYRVVSVLTVLHQDWLNGKEYKCKVSNKALPAPIEKTISKAKGQPREPQVCTLPPSREEMTKNQVSLWCLVKGFYPSDIAVEWESNGQPENNYKTTPPVLDSDGSFFLYSKLTVDKSRWQQGNVFSCSVMHEALHNHYTQKSLSLSPG
chain 2: DIQMTQSPSSLSASVGDRVTITCTSSQSLFNVRSQKNYLAWYQQKPGKAPKLLIYWASTRESGVPSRFSGSGSGTDFTLTISSLQPEDFATYYCKQSYDLFTFGGGTKVEIKGGGGSGGGGEVQLVESGGGLVQPGGSLRLSCAASGFTFSSYWMHWVRQAPGKGLEWIGEIKPSNELTNVHEKFKDRFTISVDKAKNSAYLQMNSLRAEDTAVYYCTRTITTTEGYWFFDVWGQGTLVTVSSGCPPCPAPEAAGAPSVFLFPPKPKDTLMISRTPEVTCVVVDVSHEDPEVKFNWYVDGVEVHNAKTKPREEQYNSTYRVVSVLTVLHQDWLNGKEYKCKVSNKALPAPIEKTISKAKGQPREPQVYTLPPCREEMTKNQVSLSCAVKGFYPSDIAVEWESNGQPENNYKTTPPVLDSDGSFFLVSKLTVDKSRWQQGNVFSCSVMHEALHNHYTQKSLSLSPG
notes: also called GUCY2c CD3 bispecific
binds: all assays above
